Experimental data reported in article PMC12003865 (Scientific Reports, 2025).

Target: the molecule itself
Test: co-sedimentation

B1: apoA-IV 1‒70/K58E variant (domain or fragment, human)
chain: GPEVSADQVATVMWDYFSQLSNNAKEAVEHLQKSELTQQLNALFQDKLGEVNTYAGDLQEKLVPFATELHER
- binding result: binds
